Reference: patent publication US20170088602A1 (Bristol-Myers Squibb, published 2017)
Where a chain is given by its changes, count along the chain named.

T1: human Activin A (R&D Systems) (human, UniProt P08476 311-426)
T1 sequence (looked up): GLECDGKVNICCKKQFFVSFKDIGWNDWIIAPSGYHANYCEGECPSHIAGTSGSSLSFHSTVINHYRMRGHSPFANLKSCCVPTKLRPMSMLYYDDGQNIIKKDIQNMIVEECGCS

T2: human BMP-11 (GDF-11; R&D Systems) (human, UniProt O95390 299-407)
T2 sequence (looked up): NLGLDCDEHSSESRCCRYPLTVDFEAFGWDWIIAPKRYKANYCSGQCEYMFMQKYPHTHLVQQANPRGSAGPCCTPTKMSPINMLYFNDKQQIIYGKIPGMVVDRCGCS

T3: human myostatin (mature, recombinant; R&D Systems) (human, UniProt O14793 267-375)
T3 sequence: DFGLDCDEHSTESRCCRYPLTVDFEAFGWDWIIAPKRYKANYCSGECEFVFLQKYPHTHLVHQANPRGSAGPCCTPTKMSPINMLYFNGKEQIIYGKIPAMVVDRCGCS

B1: ATI-1340 [N-ethylmaleimide] (designed binder)
chain: MGVSDVPRDLEVVAATPTSLLISWTLPHAGRAHYYRITYGETGGNSPVQEFTVPGRGVTATISGLKPGVDYTITVYAVTVTTTKVIHYKPISINYRTEGSGCHHHHHH
modifications: N-ethylmaleimide on the Cys of the EGSGC tail
notes: cysteine mutant of 2987_H07
B2: 3007_B08 (designed binder)
chain: MGVSDVPRDLEVVAATPTSLLISWSLPTPGLAHYYRITYGETGGNSPVQEFTVPGRGVTATISGLKPGVDYTITVYAVTVTHHGVIGYKPISINYRTEIDKPSQHHHHHH
B3: 2987_A06 (designed binder)
chain: B2 chain with T28H, P29A, L31H, V80L, H82K, H83S, G84K, V85I, G87H, K89M
B4: 2987_C02 (designed binder)
chain: B2 chain with T28Y, P29A, L31H, V80L, H82K, H83S, G84K, V85I, G87H, K89M
B5: 2987_E08 (designed binder)
chain: B2 chain with S25T, T28H, P29A, L31R, T81S, H82S, H83T, G84K, G87H
B6: 2987_G09 (designed binder)
chain: B2 chain with S25T, T28H, P29A, L31R, T81S, H82S, H83T, G84K, G87V, K89L
B7: 2987_H02 (designed binder)
chain: B2 chain with T28Y, P29A, L31H, V80L, H82K, H83S, G84K, G87H, K89M
B8: 2987_G04 (designed binder)
chain: B2 chain with T28Y, L31H, A32L, H33N, V80L, H82K, H83S, G84K, G87H, K89M
B9: 2987_D05 (designed binder)
chain: B2 chain with T28H, P29A, L31H, V80L, H82R, H83S, G84K, V85I, G87H, K89M
B10: 2987_F06 (designed binder)
chain: B2 chain with T28H, P29A, L31H, V80L, H82K, H83S, G84K, G87H, K89M
B11: 2987_F01 (designed binder)
chain: B2 chain with T28Y, P29A, L31H, V80L, H82R, H83S, G84K, V85I, G87H, K89M
B12: 3146_A08 (designed binder)
chain: B2 chain with T28N, L31N, H82D, H83T, V85F, G87T
B13: 3008_A03 (designed binder)
chain: B2 chain with T28H, P29H, L31F, A32G, H82A, H83T, V85I, G87I
B14: 3008_G03 (designed binder)
chain: B2 chain with T28H, A32G, V80I, H82P, H83E, G84T, V85I, G87V
B15: 3008_F01 (designed binder)
chain: B2 chain with T28R, P29Q, H33N, H82A, H83A, G87I
B16: 3116_C01 (designed binder)
chain: B2 chain with T28N, L31I, V80L, H82G, H83S, G84D, V85T, G87F
B17: 3008_D04 (designed binder)
chain: B2 chain with T28H, P29N, L31V, H82R, H83E, G84E, G87S
B18: 3007_C09 (designed binder)
chain: B2 chain with T28H, P29R, L31V, H33N, V80L, H82G, H83A, G84N, G87I
B19: 3116_C06 (designed binder)
chain: B2 chain with T28R, L31N, H82G, H83K, G84D, G87K
B20: 3008_G01 (designed binder)
chain: B2 chain with T28G, L31H, A32F, H82A, H83N, G84Q, V85P, G87I
B21: 3008_B08 (designed binder)
chain: B2 chain with T28H, P29A, L31D, H82R, H83A, V85F, I86Y, G87R
B22: 3007_C10 (designed binder)
chain: B2 chain with T28S, P29S, L31V, H82N, H83T, G87I
B23: 3115_E06 (designed binder)
chain: MGVSDVPRDLEVVAATPTSLLISWDAPAGLARYYRITYGETGGNSPVQEFTVVGRGNTATISGLKPGVDYTITVYAVTIFRDGPVTWDPISINYRTEIDKPSQHHHHHH
B24: 2987_B04 (designed binder)
chain: MGVSDVPRDLEVVAATPTSLLISWSLPYPGHLNYYRITYGETGGNSPVQEFTVPGRGVTATISGLKPGVDYTITVYAVTLTKSKIIHYMPISINYRTEIDKPSQHHHHHH
B25: 2987_E03 (designed binder)
chain: B24 chain with K82R
B26: 2987_B09 (designed binder)
chain: B24 chain with S25T, Y28H, P29A, H31R, L32A, N33H, K82R

What was measured:
[1] = target: T1, human Activin A (R&D Systems); assay: cell-based or functional assay
[2] = target: T2, human BMP-11 (GDF-11; R&D Systems); assay: cell-based or functional assay
[3] = target: T3, human myostatin (mature, recombinant; …); assay: cell-based or functional assay
[4] = target: T3, human myostatin (mature, recombinant; …); assay: competitive HTRF (1889E01/myostatin/ActRIIb-Fc sandwich)
Text: An HTRF assay was used to measure the binding affinities of anti-myostatin Adnectins to myostatin. […] The Eu-W 1024 labeled Streptavidin is used to bind biotinylated 1889E01. […] In the presence of a competitive Adnectin, the HTRF signal decreases.

[5] = target: T3, human myostatin (mature, recombinant; …); assay: cell-based or functional assay; remark: listed apart in the source

| Binder | ARE-luciferase IC50 [1] [nM] | ARE-luciferase IC50 [2] [nM] | ARE-luciferase IC50 [3] [nM] | IC50 [4] [nM] | pSmad2 % inhibition at 10 nM [5] [%] | pSmad2 IC50, 4-point [5] |
| --- | --- | --- | --- | --- | --- | --- |
| B1 | 324 | 4.87 | 0.05 | 0.16 |  |  |
| B2 | 423 | 0.23 | 0.06 | 0.14 | 97 |  |
| B3 | 283 | 23 | 0.1 |  |  |  |
| B4 | 464 | 7.1 | 0.06 |  |  |  |
| B5 | 352 | 2.8 | 0.05 |  |  |  |
| B6 | > 2000 | 0.91 | 0.05 |  |  |  |
| B7 | 794 | 11 | 0.05 |  |  |  |
| B8 | 171 | 3.3 | 0.09 |  |  |  |
| B9 | 2000 | 2.4 | 0.11 |  |  |  |
| B10 | 538 | 20 | 0.08 |  |  |  |
| B11 | 594 | 6.5 | 0.05 |  |  |  |
| B12 | > 1000 | 48 | 0.7 | 0.26 |  | 0.78 nM |
| B13 | > 2000 | 22.6 | 0.11 | 0.22 | 87 |  |
| B14 | > 2000 | 1.3 | 0.09 | 0.13 | 91 |  |
| B15 | > 2000 | 0.12 | 0.08 | 0.21 | 86 |  |
| B16 | 1000 | 6.7 | 0.1 | 0.35 |  | 0.26 nM |
| B17 | 720 | 1.2 | 0.09 | 0.14 | 92 |  |
| B18 | 417 | 0.89 | 0.04 | 0.14 | 80 |  |
| B19 | > 1000 | 8.9 | 0.14 | 0.18 |  | 0.73 nM |
| B20 | > 2000 | 0.31 | 0.03 | 0.11 | 98 |  |
| B21 | 254 | 9.3 | 0.35 | 0.37 | 90 |  |
| B22 | > 2000 | 1 | 0.03 | 0.14 | 76 |  |
| B23 | > 1000 | 2 | 0.07 | 0.14 |  | 60 pM |
| B24 | 239 | 3.3 | 0.12 |  |  |  |
| B25 | 224 | 2.3 | 0.1 |  |  |  |
| B26 | 172 | 0.92 | 0.01 |  |  |  |
